The values below come from patent US6897054.

The test has as its target huCdc7 fused to DNA-binding domain of Gal4 (human). In words: yeast two-hybrid assay, lacZ activity.

Turning to “H37 deletion derivative ΔP2 fused to Gal4 activation domain (from UniProt Q9UBU7 1-431)”, the interaction relative to the full-length clone stood at 10%.
